Assay results as given in patent US20250361322A1 (ICONIC THERAPEUTICS, published 2025).
Where two headings read alike, the source gives them in different places.

Tests used:
pig TF-His [1] = target: T1, pig TF-His (Pig (Sus scrofa)); test: Biacore SPR, antibody captured by anti-human IgG on CM5, pig TF-His titrated from 100 nM, 1:1 fit
T1 construct: also called pig TF ECD-His; pTF
T1 chain: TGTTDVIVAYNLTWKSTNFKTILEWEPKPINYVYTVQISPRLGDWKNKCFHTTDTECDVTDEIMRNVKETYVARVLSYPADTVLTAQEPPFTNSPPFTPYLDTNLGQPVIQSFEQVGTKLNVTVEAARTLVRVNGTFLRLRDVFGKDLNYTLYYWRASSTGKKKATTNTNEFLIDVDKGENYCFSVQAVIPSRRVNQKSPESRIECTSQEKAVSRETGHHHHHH
Method: (§1) The ability of certain antibodies was tested for binding to pig TF. For pig TF Biacore-based measurements, a given anti-TF antibody was captured by an anti-human IgG antibody covalently coupled to a CM5 chip (GE Healthcare Bio-Sciences). Association between the anti-TF antibodies and a five-point three-fold titration of pig TF-His starting at 100 nM was measured for 180 to 240 sec. Subsequently, dissociation between the anti-TF antibody and TF-His was measured for 1800 sec. Kinetic data was analyzed and fitted globally using a 1:1 binding model.

human TF ECD-His6 = target: T2, human TF ECD-His6 (human, UniProt P13726 33-251); test: BLI (ForteBio Octet)
T2 construct: Expi293-derived; Biacore used TF-His; also called TF-His; hTF
Method: (§2) Kinetic measurements for the anti-TF antibodies were conducted on an Octet QK384 (Pall ForteBio, Fremont, CA, USA) or a Biacore (GE Healthcare Bio-Sciences).
(§3) Briefly, ForteBio affinity measurements were performed by loading IgGs on-line onto AHC sensors. Sensors were equilibrated off-line in assay buffer for 30 min and then monitored on-line for 60 seconds for baseline establishment. Sensors with loaded IgGs were exposed to 100 nM antigen (human, cynomolgus, or mouse TF) for 3 min, afterwards they were transferred to assay buffer for 3 min for off-rate measurement. Alternatively, binding measurements were obtained by loading biotinylated TF monomer on SA sensors followed by exposure to 100 nM antibody Fab in solution. Kinetic data was analyzed and fitted using a 1:1 Langmuir binding model and the KD was calculated by dividing the koff by the kₒₙ.

[2] = target: T3, cynomolgus monkey TF ECD-His6 (cynomolgus monkey (Macaca fascicularis)); test: BLI (ForteBio Octet)
T3 construct: Expi293-derived; also called TF-His; cTF
T3 chain: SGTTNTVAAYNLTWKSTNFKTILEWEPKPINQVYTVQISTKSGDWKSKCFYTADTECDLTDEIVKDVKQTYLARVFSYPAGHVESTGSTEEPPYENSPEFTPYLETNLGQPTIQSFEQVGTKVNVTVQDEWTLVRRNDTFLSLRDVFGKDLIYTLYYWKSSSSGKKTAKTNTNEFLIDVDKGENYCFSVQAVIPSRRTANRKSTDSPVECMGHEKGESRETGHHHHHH
Method: as §2, §3

pig TF ECD-His = target: T4, pig TF ECD-His (pig (Sus scrofa)); test: SPR (Biacore), antibody captured by anti-human IgG
T4 construct: also called pig TF-His; pTF
T4 chain: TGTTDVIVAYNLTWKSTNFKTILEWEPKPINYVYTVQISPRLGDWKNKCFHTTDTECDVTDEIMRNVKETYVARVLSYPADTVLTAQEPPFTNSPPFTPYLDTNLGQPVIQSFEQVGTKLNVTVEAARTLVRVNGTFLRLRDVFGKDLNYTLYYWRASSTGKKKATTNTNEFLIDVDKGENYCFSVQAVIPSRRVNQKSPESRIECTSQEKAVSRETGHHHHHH
Method: (§4) For pig TF Biacore-based measurements, a given anti-TF antibody was captured by an anti-human IgG antibody covalently coupled to a CM5 chip (GE Healthcare Bio-Sciences). Association between the anti-TF antibodies and a five-point three-fold titration of pig TF-His starting at 100 nM was measured for 180 to 240 sec. Subsequently, dissociation between the anti-TF antibody and TF-His was measured for 1800 sec. Kinetic data was analyzed and fitted globally using a 1:1 binding model.
(§5) For rabbit TF Biacore-based measurements, a given anti-TF antibody was captured by an anti-human IgG antibody covalently coupled to a CM5 chip (GE Healthcare Bio-Sciences). Association between the anti-TF antibodies and a five-point three-fold titration of rabbit TF-His starting at 100 nM was measured for 180 to 240 sec. Subsequently, dissociation between the anti-TF antibody and TF-His was measured for 1800 sec. Kinetic data was analyzed and fitted globally using a 1:1 binding model.

rabbit TF ECD-His = target: T5, rabbit TF ECD-His (rabbit (Oryctolagus cuniculus), UniProt P24055 33-250); test: SPR (Biacore), antibody captured by anti-human IgG
T5 construct: also called rabbit TF-His
T5 sequence (P24055 other isoform, or with tags, fused parts or gaps): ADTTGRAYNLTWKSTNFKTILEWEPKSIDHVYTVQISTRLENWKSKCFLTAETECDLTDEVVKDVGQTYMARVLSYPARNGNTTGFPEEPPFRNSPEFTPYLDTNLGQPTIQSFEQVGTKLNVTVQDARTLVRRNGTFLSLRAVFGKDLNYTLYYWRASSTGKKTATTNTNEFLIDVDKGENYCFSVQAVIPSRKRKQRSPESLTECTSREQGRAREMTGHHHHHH
Method: as §4, §5

[3] = target: T6, full-length mouse TF with a C-terminal FLAG tag on Flp-In-CHO cells (mouse, UniProt P20352 29-294); test: flow cytometry, antibody titration on CHO cells expressing mouse TF
T6 construct: also called CHO-mTF; mouse TF-positive CHO cells
Method: (§6) After 2 washes, dead cells were labeled with TO-PRO-3 Iodide (ThermoFisher Scientific) and samples were analyzed on a CytoFLEX flow cytometer (Beckman Coulter, Brea, CA, USA) or Novocyte flow cytometer (ACEA Biosciences, San Diego, CA, USA). The median fluorescence intensities (MFIs) at each dilution were plotted and cell EC₅₀'s were derived using a 4-parameter binding model in Prism (GraphPad, La Jolla, CA, USA).

[4] = target: T6, full-length mouse TF with a C-terminal …; test: flow cytometry on CHO cells expressing mouse TF, MFI at 250 nM antibody
Method: as §6

[5] = target: T7, human Tissue Factor on human TF-positive cells (human, UniProt P13726 33-295); test: flow cytometry, antibody titration on HCT-116 cells (endogenous human TF), 4-parameter fit of MFI
T7 construct: also called hTF; CD142
Method: as §6

[6] = target: T7, human Tissue Factor on human …; test: competition flow cytometry on MDA-MB-231 cells: antibody titration first, then 20 nM FVII-Fc-Alexa488 as the blocked ligand
Method: (§7) After another 1 hr incubation on ice, cells were washed, stained with a viability dye, and analyzed by flow cytometry. The Alexa488 fluorescence data from viable cells was summarized using median fluorescence intensity.

pig TF-His [7] = target: T1, pig TF-His; test: Biacore SPR, antibody captured by anti-human IgG on CM5, pig TF-His titrated
Method: as §1

rTF (rat TF) [8] = target: T8, rTF (rat TF) (rat, UniProt P42533 29-252); test: live cell staining, flow cytometry, transfected HEK293
Method: (§8) To establish binding of the anti-human TF antibodies to the various TF constructs, HEK293 cells were transfected with a DNA plasmid that co-expresses the TF construct and a green fluorescent protein marker. […] Upon acquisition of 80,000 live events on a flow cytometer, live cells marked with the fluorescent marker were analyzed for the degree of staining by the anti-TF antibody.

h1-107_r = target: T9, h1-107_r (human/rat chimera); test: as above
T9 chain: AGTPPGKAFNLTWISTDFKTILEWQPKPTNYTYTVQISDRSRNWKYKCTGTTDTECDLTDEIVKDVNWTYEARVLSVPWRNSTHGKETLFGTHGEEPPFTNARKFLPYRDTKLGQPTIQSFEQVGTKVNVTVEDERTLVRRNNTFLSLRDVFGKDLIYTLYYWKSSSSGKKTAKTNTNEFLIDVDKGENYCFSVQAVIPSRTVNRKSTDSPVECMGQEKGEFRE
Method: as §8

h1-77_r = target: T10, h1-77_r (human/rat chimera); test: as above
T10 construct: Human TF ECD with residues 1-77 replaced by rat segment
Method: as §8

h78-107_r.v2 = h78-107_r.v2 (human/rat chimera); test: as above
Method: as §8

[9] = target: T11, hTF (human Tissue Factor construct) (human, UniProt P13726 33-251); test: as above
T11 construct: also called human TF
Method: as §8

rTF (rat TF) [10] = target: T8, rTF (rat TF); test: as above; remark: listed apart in the source
Method: as §8

r141-194_h = r141-194_h (rat/human chimera, UniProt P42533 29-252); test: as above
Method: as §8

hTF_N171H_T197K = target: T12, hTF_N171H_T197K (human, UniProt P13726 33-251); test: as above
T12 chain: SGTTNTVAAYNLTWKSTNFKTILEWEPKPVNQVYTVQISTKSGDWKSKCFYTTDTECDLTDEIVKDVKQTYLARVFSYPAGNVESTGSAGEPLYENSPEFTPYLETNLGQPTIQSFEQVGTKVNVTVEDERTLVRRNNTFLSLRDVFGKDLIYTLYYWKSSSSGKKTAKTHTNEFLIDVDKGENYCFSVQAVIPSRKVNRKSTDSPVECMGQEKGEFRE
Method: as §8

[11] = target: T13, pig TF ECD-His (TF-His) protein (pig (Sus scrofa)); test: Biacore; antibody captured by anti-human IgG on CM5 chip, titration of pig TF-His
T13 construct: also called pig TF-His; pTF
T13 chain: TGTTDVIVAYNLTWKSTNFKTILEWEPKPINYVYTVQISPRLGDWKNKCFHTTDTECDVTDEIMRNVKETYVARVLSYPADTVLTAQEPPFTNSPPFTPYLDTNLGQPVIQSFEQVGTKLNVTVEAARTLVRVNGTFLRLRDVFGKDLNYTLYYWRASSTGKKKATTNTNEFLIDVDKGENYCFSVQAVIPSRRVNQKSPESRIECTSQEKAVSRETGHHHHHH
Method: as §1

[12] = target: T14, rabbit TF ECD-His (TF-His) protein (rabbit (Oryctolagus cuniculus), UniProt P24055 33-250); test: Biacore; antibody captured by anti-human IgG on CM5 chip, titration of rabbit TF-His
T14 construct: also called rabbit TF-His
T14 sequence (P24055 other isoform, or with tags, fused parts or gaps): as the sequence (P24055 other isoform, or with tags, fused parts or gaps) above
Method: The ability of certain antibodies was tested for binding to rabbit TF. For rabbit TF Biacore-based measurements, a given anti-TF antibody was captured by an anti-human IgG antibody covalently coupled to a CM5 chip (GE Healthcare Bio-Sciences). Association between the anti-TF antibodies and a five-point three-fold titration of rabbit TF-His starting at 100 nM was measured for 180 to 240 sec. Subsequently, dissociation between the anti-TF antibody and TF-His was measured for 1800 sec. Kinetic data was analyzed and fitted globally using a 1:1 binding model.

[13] = target: T15, rTF (rat TF) construct on HEK293 cells (rat, UniProt P42533 29-252); test: live cell staining, HEK293 cells
T15 construct: not shown: transmembrane/cytoplasmic anchor of the cell-surface construct
T15 sequence (P42533 29-252 limits assumed): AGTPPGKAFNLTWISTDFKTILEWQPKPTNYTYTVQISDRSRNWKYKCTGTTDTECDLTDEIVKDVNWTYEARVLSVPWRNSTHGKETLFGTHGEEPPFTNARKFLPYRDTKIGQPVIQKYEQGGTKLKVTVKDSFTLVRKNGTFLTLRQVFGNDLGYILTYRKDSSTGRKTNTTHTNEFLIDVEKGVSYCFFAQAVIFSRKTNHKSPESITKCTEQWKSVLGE

[14] = target: T7, human Tissue Factor on human …; test: competition flow cytometry on MDA-MB-231 cells: antibody titration first, then 20 nM FVII-Fc-Alexa488 as the blocked ligand; remark: listed apart in the source
[15] = target: T7, human Tissue Factor on human …; test: competition flow cytometry on MDA-MB-231 cells: unlabeled antibody titration first, then 20 nM 39A-Alexa488 as the competitor
Method: as §7

B1: 43D8 (antibody, V domains shown)
VH: QVQLQQWGAGLLKPSETLSLTCAVYGGSLSGYYWSWIRQPPGKGLEWIGEIGASGSTRYNPSLKSRVTISVDTSKNQFSLKLSSVTAADTAVYYCARDTPYYYEGGYYYYMDVWGKGTTVTVSS
VL: EIVLTQSPGTLSLSPGERATLSCRASQSVSSSFLAWYQQKPGQAPRLLIYGAYSRATGIPDRFSGSGSGTDFTLTISRLEPEDFAVYYCQQAGVVPYTFGGGTKVEIK
notes: Human IgG (captured by anti-human IgG in the Biacore assay); also called antibody designated 43D8
Binder B1 has a Kd (pig TF-His [1]) of 12.9 nM.

B2: 29D (antibody, human IgG1, V domains shown)
VH: QVQLVESGGGVVQPGRSLRLSCAASGFTFHSRGMHWVRQAPGKGLEWVAVITYDGINKYYADSVEGRFTISRDNSKNTLYLQMNSLRAEDTAVYYCARDGVYYGVYDYWGQGTLVTVSS
VL: not shown
notes: Human IgG1; also called antibody designated 29D
With B2 the Kd (human TF ECD-His6) was 3.3 nM, the Kd [2] was 12 nM and the binding result (pig TF ECD-His) was “no binding (tested: titration starting at 100 nM)”. For the same binder, the binding result (rabbit TF ECD-His) was “no binding (tested: titration starting at 100 nM)”, the binding result [3] was “no binding (tested: 250 nM)” and the “MFI at 250 nM” value [4] was 30000. For the same binder, the EC50 [5] was 0.237 nM and the “IC50 (read off the curve)” value [6] was ~2 nM.

B3: 29D (antibody, V domains shown)
VH: QVQLVESGGGVVQPGRSLRLSCAASGFTFHSRGMHWVRQAPGKGLEWVAVITYDGINKYYADSVEGRFTISRDNSKNTLYLQMNSLRAEDTAVYYCARDGVYYGVYDYWGQGTLVTVSS
VL: not shown
notes: Human IgG (captured by anti-human IgG in the Biacore assay); also called antibody designated 29D
B3: no binding (pig TF-His [7]).

B4: 29E (antibody, V domains shown)
VH: QVQLVESGGGVVQPGRSLRLSCAASGFTFRSYGMHWVRQAPGKGLEWVAVITYDGINKYYADSVEGRFTISRDNSKNTLYLQMNSLRAEDTAVYYCARDGVYYGVYDYWGQGTLVTVSS
VL: not shown
notes: Human IgG (detected with anti-human IgG-Fc)
B4 was tested, and the “percent antibody binding to TF construct relative to hTF” value (rTF (rat TF) [8]) was 0%, the “percent antibody binding to TF construct relative to hTF” value (h1-107_r) was 0% and the “percent antibody binding to TF construct relative to hTF” value (h1-77_r) was 0%. For the same binder, the “percent antibody binding to TF construct relative to hTF” value (h78-107_r.v2) was 0%, the “percent antibody binding to TF construct relative to hTF” value [9] was 100% and the “percent antibody binding to TF construct relative to hTF” value (rTF (rat TF) [10]) was 0%. The “percent antibody binding to TF construct relative to hTF” value (r141-194_h) was 0% and the “percent antibody binding to TF construct relative to hTF” value (hTF_N171H_T197K) was 98%.

B5: anti-TF antibody 29D (antibody, human IgG1, V domains shown)
VH: QVQLVESGGGVVQPGRSLRLSCAASGFTFHSRGMHWVRQAPGKGLEWVAVITYDGINKYYADSVEGRFTISRDNSKNTLYLQMNSLRAEDTAVYYCARDGVYYGVYDYWGQGTLVTVSS
VL: not shown
notes: Human IgG1
B5: no binding [11]; no binding [12].

B6: 25G9 (antibody, V domains shown)
VH: QVQLVQSGAEVKKPGASVKVSCKASGYTFRSYGISWVRQAPGQGLEWMGWVAPYSGNTNYAQKLQGRVTMTTDTSTSTAYMELRSLRSDDTAVYYCARDAGTYSPYGYGMDVWGQGTTVTVSS
VL: DIQMTQSPSTLSASVGDRVTITCQASQSIDSWLAWYQQKPGKAPKLLIYSASYLESGVPSRFSGSGSGTEFTLTISSLQPDDFATYYCQRFQSLPPFTFGGGTKVEIK
notes: Human IgG (captured by anti-human IgG in the Biacore assay); also called antibody designated 25G9
In the case of B6, the Kd (pig TF-His [1]) is reported as 3.31 nM.

B7: TF-011 (antibody, V domains shown)
VH: EVQLLESGGGLVQPGGSLRLSCAASGFTFSNYAMSWVRQAPGKGLEWVSSISGSGDYTYYTDSVKGRFTISRDNSKNTLYLQMNSLRAEDTAVYYCARSPWGYYLDSWGQGTLVTVSS
VL: DIQMTQSPPSLSASAGDRVTITCRASQGISSRLAWYQQKPEKAPKSLIYAASSLQSGVPSRFSGSGSGTDFTLTISSLQPEDFATYYCQQYNSYPYTFGQGTKLEIK
notes: Previously described anti-TF antibody; also called tisotumab
For B7, the binding result [13] was “no binding”, the IC50 [14] was 1.01 nM and the IC50 [15] was 0.61 nM.

B8: 1G (antibody, human IgG1, V domains shown)
VH: EVQLLESGGGLVQPGGSLRLSCAASGFTFSSYAMAWVRQAPGKGLEWVSAISGSGGLTYYADSVKGRFTISRDNSKNTLYLQMNSLRAEDTAVYYCAKAPYGYYMDVWGKGTTVTVSS
VL: not shown
notes: Human IgG1; also called antibody designated 1G
B8 was tested, and the Kd (human TF ECD-His6) was 2.2 nM, the Kd [2] was 2.7 nM and the binding result (pig TF ECD-His) was “no binding (tested: titration starting at 100 nM)”. The binding result (rabbit TF ECD-His) was “no binding (tested: titration starting at 100 nM)”, the binding result [3] was “no binding (tested: 250 nM)” and the “MFI at 250 nM” value [4] was 4300. The EC50 [5] was 0.058 nM and the “IC50 (read off the curve)” value [6] was ~1 nM.

B9: 1G (antibody, V domains shown)
VH: EVQLLESGGGLVQPGGSLRLSCAASGFTFSSYAMAWVRQAPGKGLEWVSAISGSGGLTYYADSVKGRFTISRDNSKNTLYLQMNSLRAEDTAVYYCAKAPYGYYMDVWGKGTTVTVSS
VL: not shown
notes: Human IgG (captured by anti-human IgG in the Biacore assay); also called antibody designated 1G
B9: no binding (pig TF-His [7]).

B10: anti-TF antibody 1G (antibody, human IgG1, V domains shown)
VH: EVQLLESGGGLVQPGGSLRLSCAASGFTFSSYAMAWVRQAPGKGLEWVSAISGSGGLTYYADSVKGRFTISRDNSKNTLYLQMNSLRAEDTAVYYCAKAPYGYYMDVWGKGTTVTVSS
VL: not shown
notes: Human IgG1
B10: no binding [11]; no binding [12].

B11: 1F (antibody, V domains shown)
VH: EVQLLESGGGLVQPGGSLRLSCAASGFTFSDYAMGWVRQAPGKGLEWVSTISGSGGLTYYADSVKGRFTISRDNSKNTLYLQMNSLRAEDTAVYYCAKAPYGYYMDVWGKGTTVTVSS
VL: not shown
notes: as for B4
With B11 the “percent antibody binding to TF construct relative to hTF” value (rTF (rat TF) [8]) was 0%, the “percent antibody binding to TF construct relative to hTF” value (h1-107_r) was 0% and the “percent antibody binding to TF construct relative to hTF” value (h1-77_r) was 0%. For the same binder, the “percent antibody binding to TF construct relative to hTF” value (h78-107_r.v2) was 0%, the “percent antibody binding to TF construct relative to hTF” value [9] was 100% and the “percent antibody binding to TF construct relative to hTF” value (rTF (rat TF) [10]) was 0%. For the same binder, the “percent antibody binding to TF construct relative to hTF” value (r141-194_h) was 0% and the “percent antibody binding to TF construct relative to hTF” value (hTF_N171H_T197K) was 83%.
